# Patent publication US11466286B2, “Methods and compositions for conferring and/or enhancing herbicide tolerance using protoporphyrinogen oxidase or variant thereof” (FarmHannong Co., Ltd., priority 2016, dated 2022)
# Legend:
# CyPPO10 = assay: PPO enzyme activity and IC50 by herbicides, CyPPO10 wild type and variants (MBP-PPO fusion); type: biochemical, Thermosynechococcus elongatus BP-1; conditions: PPO enzyme activity of CyPPO10 protein, wild type = 100
# How it was run: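 MBP-fused wild-type and variant CyPPO10 or CyPPO13 were expressed in E. coli BL21(DE3) and purified. After a 30 min oxygen-depleting preincubation with glucose oxidase-catalase in 50 mM Tris-Cl pH 8.0, 50 mM NaCl and 0.04% Tween 20, reactions used 50 μM substrate for 30 min at room temperature. Protoporphyrin IX fluorescence (ex 405/em 633 nm) was quantified against a standard curve.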
# A. thaliana = assay: Seed germination of A. thaliana transformants on ½ MS media containing herbicides; type: in vivo, Arabidopsis thaliana; conditions: T3 lines; 25 μM glufosinate, 25 μM glufosinate+70 nM tiafenacil, or 25 μM glufosinate+30 nM tiafenacil+40 nM saflufenacil; 7 days after sowing
# Excerpt: T3 generation seeds of each transformant were sown in ½ MS media containing herbicides. Col-0 ecotype (wild type Arabidopsis) seeds were used as a control. The kinds of herbicides and concentration are as follows:
# In FIGS. 31a to 31c, 10-3 refers to CyPPO10 wild type, 10FM-4-7 to the CyPPO10 F360M transgenic line, 10FL-1-9 to the CyPPO10 F360L transgenic line, 10FC-3-5 to the CyPPO10 F360C transgenic line, 10AC-5-4 to the CyPPO10 A167C transgenic line, 13-1 to CyPPO13 wild type, 13FM-3-1 to the CyPPO13 F373M transgenic line, 13FC-1-1 to the CyPPO13 F373C transgenic line, 13FI-2-1 to the CyPPO13 F373I transgenic line, 13AC-1-3 to the CyPPO13 A177C transgenic line, CyPPO13_ALFL to the CyPPO13 A177L+F373L transgenic line, and CyPPO13_ALFI to the CyPPO13 A177L+F373I transgenic line, respectively.
# [1] = tested on: PPO-deficient BT3 E. coli (ΔPPO); assay: Herbicide tolerance of PPO-deficient BT3 E. coli transformed with CyPPO10/CyPPO13 wild type or mutant genes on herbicide-containing LB agar; type: cell-based; design: key: the level of herbicide tolerance of the wild type was represented by “−”; if higher, adding “+” to the max “+++++”; if higher, adding “+” to the max “+++++”; if higher, adding “+” to the max “+++++”; if higher, adding “+” to the max “+++++”; if higher, adding “+” to the max “+++++”
# Excerpt: In order to enhance PPO-inhibiting herbicide tolerance of CyPPO10 and CyPPO13, the amino acids interacting with herbicide, as identified in the Example 3, were mutated. After PPO-deficient BT3 E. coli (ΔPPO) was transformed with a PPO gene having such mutation, and then cultured with PPO-inhibiting herbicide, to observe the growth of transformed E. coli, as follows:
# The pET303-CyPPO10 or pET303-CyPPO13 plasmids prepared in the Example 4, and plasmids containing each mutant gene, were transformed into BT3 competent cell by a heat shock method, and cultured in a LB agar medium containing ampicillin (100 μg/ml).
# For seed culture of BT3 transformants, a single colony thereof was cultured in 3 ml of LB broth (LPSS) containing ampicillin for 12 hours or more, and 50˜100 μl of the cultured solution was further cultured until absorbance (OD600) reaches 0.5 to 1. Then, the obtained cultured solution was diluted with LB broth to adjust absorbance (OD600) to 0.5, and was diluted again 5 times by a factor of one tenth with LB broth.
# LB (25 g/L), Bacto agar (12 g/L), ampicillin (100 μg/ml) and various herbicides (0˜200 μM) were mixed, to prepare herbicide-containing media.
# Ten microliters of the diluted solution were dropped on the herbicide-containing media, and the media were incubated with light for 16-20 hours at 37° C. The growth level and PPO-inhibiting herbicide tolerance of BT3 transformed with each gene were evaluated.
# The herbicide tolerance was evaluated relatively compared to CyPPO wild type, and shown in following Tables 8 to 11 and FIGS. 11 to 29:
# In the Tables 8 to 11, the level of herbicide tolerance of the wild type was represented by “−”, and the level of herbicide tolerance was graduated by representing the equal level of tolerance by “−”, and if higher, adding “+” to the max “+++++”.
# FIGS. 11 to 19 (wild type and variants of CyPPO10) and FIGS. 20 to 29 (wild type and variants of CyPPO13) show the results of culturing E. coli transformed with CyPPO genes (wild type and variant type), and the concentration described on the top is concentration of herbicide treated. Six columns of each concentration were sequentially diluted 5 times by a factor of one tenth with the E. coli culture solution to the right, and the most left column is the result of E. coli culture solution OD600=0.5.
# [2] = BT3 E. coli with CyPPO10 gene, relative to CyPPO10 wild type
# [3] = BT3 E. coli with CyPPO13 gene, relative to CyPPO13 wild type
Molecule,Activity (%) (CyPPO10),Seed germination in media containing herbicides (A. thaliana),"Herbicide tolerance level, Acifluorfen (up to 200 μM) [1, 3]","Herbicide tolerance level, Fomesafen (up to 200 μM) [1, 3]","Herbicide tolerance level, Pyraclonil (up to 200 μM) [1, 3]","Herbicide tolerance level, Pyraflufen-ethyl (up to 200 μM) [1, 3]","Herbicide tolerance level, Sulfentrazone (up to 200 μM) [1, 3]",further results
"CyPPO10 F360M: CyPPO10 (SEQ ID NO: 2) PPO variant (protein, Synthetic CyPPO10) MIEVDVAIVGGGLSGLSVAWRLQRSAPHYSGVLLEASDRLGGNITTQAAEGFVWELGPNSFAPTPALLQLIAEVGLHSELIRGDRHLPRYIYWRGELYPLEPTRPLALATSNLLSPWGKVRAALGALGFVPPYLGSGDESVDSFFRRHLGQEVAERLVAPFVSGVYAGDPQQLSAAAAFRRIAQLEKLGGSLIAGALRLRRQQPPQPKPPAQVQMRPGELGSFREGLAALPRAIAQQLKAPLHLQTPVEAITPEPKGGYLLRSGEQTWHARSVVLATPAYQTAELVAPFQPAIARALATIPYPTVACVVLAYPAGLGRSVRPGFGVLVPRGQGIRTLGTIWSSCLFPQRTPAGWQVFTSMIGGATDPDLASLREEAIVEQVQQDLTRLLDLPAAKARLLGMKVWRRAIPQYIVGYPQQWQQVTHALTQTPGLFLCSNYAEGVALGDRVEHGNRTAAAVAAYLAGGQS",93,germinated,,,,,,
"CyPPO10 F360I: CyPPO10 (SEQ ID NO: 2) PPO variant (protein, Synthetic CyPPO10) MIEVDVAIVGGGLSGLSVAWRLQRSAPHYSGVLLEASDRLGGNITTQAAEGFVWELGPNSFAPTPALLQLIAEVGLHSELIRGDRHLPRYIYWRGELYPLEPTRPLALATSNLLSPWGKVRAALGALGFVPPYLGSGDESVDSFFRRHLGQEVAERLVAPFVSGVYAGDPQQLSAAAAFRRIAQLEKLGGSLIAGALRLRRQQPPQPKPPAQVQMRPGELGSFREGLAALPRAIAQQLKAPLHLQTPVEAITPEPKGGYLLRSGEQTWHARSVVLATPAYQTAELVAPFQPAIARALATIPYPTVACVVLAYPAGLGRSVRPGFGVLVPRGQGIRTLGTIWSSCLFPQRTPAGWQVFTSIIGGATDPDLASLREEAIVEQVQQDLTRLLDLPAAKARLLGMKVWRRAIPQYIVGYPQQWQQVTHALTQTPGLFLCSNYAEGVALGDRVEHGNRTAAAVAAYLAGGQS",67,germinated,,,,,,
"CyPPO10 F360C: CyPPO10 (SEQ ID NO: 2) PPO variant (protein, Synthetic CyPPO10) MIEVDVAIVGGGLSGLSVAWRLQRSAPHYSGVLLEASDRLGGNITTQAAEGFVWELGPNSFAPTPALLQLIAEVGLHSELIRGDRHLPRYIYWRGELYPLEPTRPLALATSNLLSPWGKVRAALGALGFVPPYLGSGDESVDSFFRRHLGQEVAERLVAPFVSGVYAGDPQQLSAAAAFRRIAQLEKLGGSLIAGALRLRRQQPPQPKPPAQVQMRPGELGSFREGLAALPRAIAQQLKAPLHLQTPVEAITPEPKGGYLLRSGEQTWHARSVVLATPAYQTAELVAPFQPAIARALATIPYPTVACVVLAYPAGLGRSVRPGFGVLVPRGQGIRTLGTIWSSCLFPQRTPAGWQVFTSCIGGATDPDLASLREEAIVEQVQQDLTRLLDLPAAKARLLGMKVWRRAIPQYIVGYPQQWQQVTHALTQTPGLFLCSNYAEGVALGDRVEHGNRTAAAVAAYLAGGQS",,germinated,,,,,,
"CyPPO10 V305M: CyPPO10 (SEQ ID NO: 2) PPO variant (protein, Synthetic CyPPO10) MIEVDVAIVGGGLSGLSVAWRLQRSAPHYSGVLLEASDRLGGNITTQAAEGFVWELGPNSFAPTPALLQLIAEVGLHSELIRGDRHLPRYIYWRGELYPLEPTRPLALATSNLLSPWGKVRAALGALGFVPPYLGSGDESVDSFFRRHLGQEVAERLVAPFVSGVYAGDPQQLSAAAAFRRIAQLEKLGGSLIAGALRLRRQQPPQPKPPAQVQMRPGELGSFREGLAALPRAIAQQLKAPLHLQTPVEAITPEPKGGYLLRSGEQTWHARSVVLATPAYQTAELVAPFQPAIARALATIPYPTMACVVLAYPAGLGRSVRPGFGVLVPRGQGIRTLGTIWSSCLFPQRTPAGWQVFTSFIGGATDPDLASLREEAIVEQVQQDLTRLLDLPAAKARLLGMKVWRRAIPQYIVGYPQQWQQVTHALTQTPGLFLCSNYAEGVALGDRVEHGNRTAAAVAAYLAGGQS",100,,,,,,,"Herbicide tolerance level, Acifluorfen (up to 200 μM) [1, 2]: +++; Herbicide tolerance level, Fomesafen (up to 200 μM) [1, 2]: ++++; Herbicide tolerance level, Pentoxazone (up to 200 μM) [1, 2]: ++++; Herbicide tolerance level, Pyraclonil (up to 200 μM) [1, 2]: +++; Herbicide tolerance level, Pyraflufen-ethyl (up to 200 μM) [1, 2]: +; Herbicide tolerance level, Saflufenacil (up to 200 μM) [1, 2]: +; Herbicide tolerance level, Tiafenacil (up to 200 μM) [1, 2]: ++"
"CyPPO13 P316A + V318L: CyPPO13 (SEQ ID NO: 4) PPO variant (protein, Synthetic CyPPO13) MNPATPEPLNAEVVVIGAGISGLTLAWRLQQGLSARGGSPQAVLLAEASSRVGGCISTQSKDGYRWEEGPNSFTPTPALLNLIAEVGLTDQLVLADAKLPRYIYWEGALLPVPLSPAAALGSRLLSVGGKLRALQGLLGFVPPPPGHEETVRQFFRRQLGSEVAERLVEPFTSGVYAGDPDQLSAVAAFPRVAGLEERYGSLFAGALQALRQRPQPSPAAIQPPPKRGQLGNLRQGLQQLPEALAQKLGDSLRLGWRALQLKRAGELYWVGFETPEGSRWVAARQVVLALPAYEAAALLQELNPPASQLLAEILYAPLAVVALAYPQEALPQPLRGFGHLIPRSQGLRTLGTIWASCLFPERAPQGYHSFLSFLGGATDAALARRRGIPPIPALSPEERAQIAHAELSQVLLTRRAEPVYLGERLWPRAIPQYTLGHRQRIAQVQAHLASQTPGIWVCANYLDGVALGDCVRRAEALAQQLLSQV",,,+++,−,−,+,−,
"CyPPO13 P316L + V318L: CyPPO13 (SEQ ID NO: 4) PPO variant (protein, Synthetic CyPPO13) MNPATPEPLNAEVVVIGAGISGLTLAWRLQQGLSARGGSPQAVLLAEASSRVGGCISTQSKDGYRWEEGPNSFTPTPALLNLIAEVGLTDQLVLADAKLPRYIYWEGALLPVPLSPAAALGSRLLSVGGKLRALQGLLGFVPPPPGHEETVRQFFRRQLGSEVAERLVEPFTSGVYAGDPDQLSAVAAFPRVAGLEERYGSLFAGALQALRQRPQPSPAAIQPPPKRGQLGNLRQGLQQLPEALAQKLGDSLRLGWRALQLKRAGELYWVGFETPEGSRWVAARQVVLALPAYEAAALLQELNPPASQLLAEILYLPLAVVALAYPQEALPQPLRGFGHLIPRSQGLRTLGTIWASCLFPERAPQGYHSFLSFLGGATDAALARRRGIPPIPALSPEERAQIAHAELSQVLLTRRAEPVYLGERLWPRAIPQYTLGHRQRIAQVQAHLASQTPGIWVCANYLDGVALGDCVRRAEALAQQLLSQV",,,+++,++,−,+,+,
